Tests used:
Experiment in all cases: cleavage_in_vitro
[1] = test system: T1, OMNI-125 (metagenomic, unknown); conditions: TXTL; PAM NARNCCYN
T1 sequence: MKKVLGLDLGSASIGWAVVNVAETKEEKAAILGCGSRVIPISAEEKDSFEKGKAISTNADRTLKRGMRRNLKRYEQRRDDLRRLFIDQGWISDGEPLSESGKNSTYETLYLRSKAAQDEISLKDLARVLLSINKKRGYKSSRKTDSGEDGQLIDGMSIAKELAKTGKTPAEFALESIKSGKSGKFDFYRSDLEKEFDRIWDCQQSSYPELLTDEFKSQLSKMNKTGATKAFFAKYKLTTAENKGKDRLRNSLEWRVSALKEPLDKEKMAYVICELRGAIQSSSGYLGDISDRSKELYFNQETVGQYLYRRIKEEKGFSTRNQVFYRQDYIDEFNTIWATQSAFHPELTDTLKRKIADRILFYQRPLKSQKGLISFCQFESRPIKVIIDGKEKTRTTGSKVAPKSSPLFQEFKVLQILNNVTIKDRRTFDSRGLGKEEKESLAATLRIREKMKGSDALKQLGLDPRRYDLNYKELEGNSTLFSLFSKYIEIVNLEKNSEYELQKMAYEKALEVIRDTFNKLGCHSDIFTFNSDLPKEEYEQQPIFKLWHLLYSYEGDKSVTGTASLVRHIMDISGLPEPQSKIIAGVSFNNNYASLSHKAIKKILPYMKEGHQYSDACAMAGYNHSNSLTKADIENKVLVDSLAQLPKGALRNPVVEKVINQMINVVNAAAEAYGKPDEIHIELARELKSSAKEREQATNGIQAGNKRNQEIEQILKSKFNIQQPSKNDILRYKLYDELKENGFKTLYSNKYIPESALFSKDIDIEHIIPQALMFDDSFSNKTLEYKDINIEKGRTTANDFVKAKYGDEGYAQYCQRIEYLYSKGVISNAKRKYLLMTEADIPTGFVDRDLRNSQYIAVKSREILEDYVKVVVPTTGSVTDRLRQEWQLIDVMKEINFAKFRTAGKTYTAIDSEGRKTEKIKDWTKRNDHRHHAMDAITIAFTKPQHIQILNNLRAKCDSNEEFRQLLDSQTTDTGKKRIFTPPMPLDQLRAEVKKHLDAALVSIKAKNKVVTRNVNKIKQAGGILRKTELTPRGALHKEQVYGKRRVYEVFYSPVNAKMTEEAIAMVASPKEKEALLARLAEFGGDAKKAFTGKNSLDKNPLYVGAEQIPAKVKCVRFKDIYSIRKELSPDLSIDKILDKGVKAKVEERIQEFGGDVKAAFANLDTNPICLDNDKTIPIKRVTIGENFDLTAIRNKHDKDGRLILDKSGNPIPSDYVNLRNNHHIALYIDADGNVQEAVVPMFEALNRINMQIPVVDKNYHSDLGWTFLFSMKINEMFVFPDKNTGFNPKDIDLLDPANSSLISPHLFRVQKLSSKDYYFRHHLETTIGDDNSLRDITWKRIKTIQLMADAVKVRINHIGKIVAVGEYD

[2] = test system: T2, OMNI-126 (metagenomic, unknown); conditions: TXTL; PAM NNNNAARN
T2 sequence: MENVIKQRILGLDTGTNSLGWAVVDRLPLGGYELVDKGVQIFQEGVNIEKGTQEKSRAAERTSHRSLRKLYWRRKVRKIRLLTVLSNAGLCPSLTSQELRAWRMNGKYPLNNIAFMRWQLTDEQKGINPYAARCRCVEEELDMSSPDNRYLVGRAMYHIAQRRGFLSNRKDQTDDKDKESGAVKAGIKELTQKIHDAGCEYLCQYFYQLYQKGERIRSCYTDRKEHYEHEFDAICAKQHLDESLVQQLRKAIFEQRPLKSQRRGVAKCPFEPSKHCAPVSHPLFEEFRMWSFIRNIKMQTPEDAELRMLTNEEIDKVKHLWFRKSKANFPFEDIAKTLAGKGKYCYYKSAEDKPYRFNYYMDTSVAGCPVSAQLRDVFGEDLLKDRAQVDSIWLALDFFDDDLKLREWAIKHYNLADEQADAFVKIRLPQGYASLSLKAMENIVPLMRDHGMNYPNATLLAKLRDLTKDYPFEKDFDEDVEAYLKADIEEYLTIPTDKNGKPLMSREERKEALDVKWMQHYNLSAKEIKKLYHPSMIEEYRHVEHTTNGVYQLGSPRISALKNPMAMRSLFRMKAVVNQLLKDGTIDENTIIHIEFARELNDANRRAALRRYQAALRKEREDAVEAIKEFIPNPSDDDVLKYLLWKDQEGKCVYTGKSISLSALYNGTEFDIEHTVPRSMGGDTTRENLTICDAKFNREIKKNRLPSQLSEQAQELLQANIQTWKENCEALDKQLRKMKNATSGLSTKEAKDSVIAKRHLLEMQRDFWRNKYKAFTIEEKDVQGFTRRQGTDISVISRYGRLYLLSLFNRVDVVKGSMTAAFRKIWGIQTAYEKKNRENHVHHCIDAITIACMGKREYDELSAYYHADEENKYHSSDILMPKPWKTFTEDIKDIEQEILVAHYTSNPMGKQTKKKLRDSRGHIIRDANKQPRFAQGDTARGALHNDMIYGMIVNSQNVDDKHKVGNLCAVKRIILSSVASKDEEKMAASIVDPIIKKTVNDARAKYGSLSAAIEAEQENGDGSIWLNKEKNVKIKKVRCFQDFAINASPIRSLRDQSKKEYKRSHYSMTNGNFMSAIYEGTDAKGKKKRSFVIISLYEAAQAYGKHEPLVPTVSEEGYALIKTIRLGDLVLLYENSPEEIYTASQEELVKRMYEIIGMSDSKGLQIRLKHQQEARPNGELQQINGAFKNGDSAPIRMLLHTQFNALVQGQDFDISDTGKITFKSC

[3] = test system: T3, OMNI-123 (metagenomic, unknown); conditions: TXTL; PAM NNNSGYAA
T3 sequence: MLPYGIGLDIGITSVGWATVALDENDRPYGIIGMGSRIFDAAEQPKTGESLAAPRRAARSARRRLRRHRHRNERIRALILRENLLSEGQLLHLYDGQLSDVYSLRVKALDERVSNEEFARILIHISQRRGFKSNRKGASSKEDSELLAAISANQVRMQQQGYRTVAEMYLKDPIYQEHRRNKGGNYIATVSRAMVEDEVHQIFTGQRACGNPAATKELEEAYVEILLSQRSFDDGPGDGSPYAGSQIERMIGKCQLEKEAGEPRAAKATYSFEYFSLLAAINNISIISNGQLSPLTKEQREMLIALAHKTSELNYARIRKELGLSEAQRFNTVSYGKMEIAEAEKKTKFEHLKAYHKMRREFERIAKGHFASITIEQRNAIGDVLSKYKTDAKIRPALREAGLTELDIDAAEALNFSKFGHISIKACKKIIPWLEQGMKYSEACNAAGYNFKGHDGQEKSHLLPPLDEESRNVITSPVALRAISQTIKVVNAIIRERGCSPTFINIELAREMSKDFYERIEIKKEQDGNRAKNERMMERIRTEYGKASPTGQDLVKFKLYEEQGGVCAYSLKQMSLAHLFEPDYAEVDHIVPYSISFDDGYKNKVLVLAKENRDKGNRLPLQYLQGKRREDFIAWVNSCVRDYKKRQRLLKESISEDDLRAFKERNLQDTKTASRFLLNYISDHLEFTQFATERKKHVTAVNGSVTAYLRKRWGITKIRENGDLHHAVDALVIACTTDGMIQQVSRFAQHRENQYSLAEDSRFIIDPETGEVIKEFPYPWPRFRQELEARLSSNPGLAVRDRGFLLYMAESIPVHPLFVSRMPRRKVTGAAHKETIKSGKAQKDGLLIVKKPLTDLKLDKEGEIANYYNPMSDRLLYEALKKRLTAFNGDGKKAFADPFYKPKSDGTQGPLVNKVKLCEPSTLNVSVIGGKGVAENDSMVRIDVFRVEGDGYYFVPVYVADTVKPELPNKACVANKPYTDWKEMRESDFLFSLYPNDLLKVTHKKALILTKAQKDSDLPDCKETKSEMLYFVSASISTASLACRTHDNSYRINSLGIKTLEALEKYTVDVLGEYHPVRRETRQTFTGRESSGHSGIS

[4] = test system: T4, OMNI-91 (metagenomic, unknown); conditions: TXTL; PAM NNGNRTNN
T4 sequence: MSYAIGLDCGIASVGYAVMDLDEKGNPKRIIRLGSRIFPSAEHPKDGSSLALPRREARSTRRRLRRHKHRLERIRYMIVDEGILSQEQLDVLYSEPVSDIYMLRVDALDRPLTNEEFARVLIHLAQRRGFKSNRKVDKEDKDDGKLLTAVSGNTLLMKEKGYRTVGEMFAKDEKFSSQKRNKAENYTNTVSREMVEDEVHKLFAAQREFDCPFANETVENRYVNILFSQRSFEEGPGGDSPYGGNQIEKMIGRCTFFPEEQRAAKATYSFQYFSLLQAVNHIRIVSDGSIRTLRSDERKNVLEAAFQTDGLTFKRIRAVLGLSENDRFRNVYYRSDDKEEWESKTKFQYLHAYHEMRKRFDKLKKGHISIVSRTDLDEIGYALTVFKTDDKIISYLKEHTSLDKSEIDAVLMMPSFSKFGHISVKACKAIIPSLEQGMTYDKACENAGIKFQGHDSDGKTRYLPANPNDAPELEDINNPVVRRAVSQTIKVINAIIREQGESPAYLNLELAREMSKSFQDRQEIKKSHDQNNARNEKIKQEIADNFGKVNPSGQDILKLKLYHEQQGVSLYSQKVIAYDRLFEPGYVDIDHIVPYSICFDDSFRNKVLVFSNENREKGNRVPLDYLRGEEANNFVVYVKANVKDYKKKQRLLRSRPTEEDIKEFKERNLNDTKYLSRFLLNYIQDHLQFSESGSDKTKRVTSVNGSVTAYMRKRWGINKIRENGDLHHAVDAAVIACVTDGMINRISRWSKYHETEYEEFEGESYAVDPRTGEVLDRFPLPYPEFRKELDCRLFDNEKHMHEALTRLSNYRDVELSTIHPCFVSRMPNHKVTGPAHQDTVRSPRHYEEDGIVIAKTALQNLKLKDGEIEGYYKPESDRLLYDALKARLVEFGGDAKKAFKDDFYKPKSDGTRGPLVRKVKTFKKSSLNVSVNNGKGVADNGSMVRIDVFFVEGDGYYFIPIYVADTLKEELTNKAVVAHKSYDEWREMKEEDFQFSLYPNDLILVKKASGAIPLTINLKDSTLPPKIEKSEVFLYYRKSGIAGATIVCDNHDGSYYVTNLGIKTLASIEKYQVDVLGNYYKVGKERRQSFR

Sequence: GGAAGAGCAGAGCCUUGGUCUCGUUGUGAAUGGCUUUCGAAAUUGAAGCCAUUCACAAUAAGGAUUAUUCCGUUGUGAAAACAUUAAGAGCGGGUCGUGAGACUCGCUCUUCUGUGUUUAUUUUUU / GGAAGAGCAGAGCCTTGGTCTCNNNNNNNN / NNNNNNNNGAGACCAAGGCTCTGCTCTTCC [T2 sgRNA 27 V1 ; T2 protospacer + 8N PAM library (pbPOS T2)]
- activity (1-depletion score) [1]: 0.95

Sequence: GGAAGAGCAGAGCCUUGGUCUCGUUGUGGCUUGUUGAAGAAGAAAUUCUUCAACUUGUCACAAUAAGGCCCUUAAGGCCGAAGGUUGAAAAACCUAUGGCUCUACUUCGGUGGAGCCUUUUUU / GGAAGAGCAGAGCCTTGGTCTCNNNNNNNN / NNNNNNNNGAGACCAAGGCTCTGCTCTTCC [T2 sgRNA 28 V1 ; T2 protospacer + 8N PAM library (pbPOS T2)]
- activity (1-depletion score) [2]: 0.64

Sequence: GGAAGAGCAGAGCCUUGGUCUCGUUAUAGUUCCCUGAUAGUGAAAACUAUGAGGUUGCUAUAAUAAGGUAGUAAACCGCAGAGCUCUAACGCCUCACAUUUGUGGGGCGUUAUCUCUUUUUUU / GGAAGAGCAGAGCCTTGGTCTCNNNNNNNN / NNNNNNNNGAGACCAAGGCTCTGCTCTTCC [T2 sgRNA 26 V1 ; T2 protospacer + 8N PAM library (pbPOS T2)]
- activity (1-depletion score) [3]: 0.95

Sequence: GGAAGAGCAGAGCCUUGGUCUCGUUGUAGUCCCCUCGUAGUGAAAACUAUCAGGUCACUACAAUAAAGUAGAACACUGAAAAGCUCUGACGGCCCACUUUCCGUGGGUCGUCAUCUUUUUU / GGAAGAGCAGAGCCTTGGTCTCNNNNNNNN / NNNNNNNNGAGACCAAGGCTCTGCTCTTCC [T2 sgRNA 2 V1 ; T2 protospacer + 8N PAM library (pbPOS T2)]
- activity (1-depletion score) [4]: 0.96

Reference: patent US20240425885
